According to the supplement of paper PMC10567573:

B1: MYOZ1 (parent)
chain: FSDSSMDHFQKFLPTVGGQLGTAG
B2: POLD4 (parent)
chain: ITDSYPVVKRREGPAGHSKGELAP

Variants of: B1
Assay: protein stability index of a GFP-peptide fusion (GPS, HEK-293T) (PSI 1-6); higher = more stable
Conditions: c terminus: a fixed tail appended
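Note: lentivirally expressed fusions sorted by FACS into six bins by GFP to DsRed ratio, PSI derived from sequencing read proportions per bin multiplied by bin number.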

Row | Variant | protein stability index
1 | FSDSSMDHFQKFLPTYGGQLGTAG [V16Y] | 1.92
2 | FSDSSMDHFQKFLRTVGGQLGTAG [P14R] | 1.44
3 | FSDSSMDHFQKFLPTVRGQLGTAG [G17R] | 1.92
4 | FSDISMDHFQKFLPTVGGQLGTAG [S4I] | 3.59
5 | FSDSSMDHRQKFLPTVGGQLGTAG [F9R] | 2.6
6 | FSDSSMDHFQKHLPTVGGQLGTAG [F12H] | 3.28
7 | FSDSSMDHFQKFLPTVGGQLGTAQ [G24Q] | 1.98
8 | FSDSSMDHFQKFLPTVGGQLGDAG [T22D] | 2.86
9 | FSDSSMDHFQKFLPTVGGQNGTAG [L20N] | 2.97
10 | FSDSGMDHFQKFLPTVGGQLGTAG [S5G] | 1.88
11 | FSDSSMDHFQKFLPMVGGQLGTAG [T15M] | 1.85
12 | FSDSSMDHFQKFLPTVGGQLGTAW [G24W] | 1.23
13 | FSDSSMDHFVKFLPTVGGQLGTAG [Q10V] | 1.77
14 | FSDSSMDHFQKRLPTVGGQLGTAG [F12R] | 3.5
15 | FSDSCMDHFQKFLPTVGGQLGTAG [S5C] | 2.19
16 | FSDSSMDHFQKFLPTVGGQLGTDG [A23D] | 2.68
17 | FSDSSMVHFQKFLPTVGGQLGTAG [D7V] | 2.15
18 | FSDSSMDHAQKFLPTVGGQLGTAG [F9A] | 2.71
19 | FSVSSMDHFQKFLPTVGGQLGTAG [D3V] | 1.96
20 | FSDSSMDHFQKFLPTEGGQLGTAG [V16E] | 4.23

Row | Variant | protein stability index
21 | FEDSSMDHFQKFLPTVGGQLGTAG [S2E] | 2.81
22 | FSDSSMDHFQKKLPTVGGQLGTAG [F12K] | 3.67
23 | FSDSSMDHFQKFLPTTGGQLGTAG [V16T] | 3.09
24 | FSDSSMDHFQKFLPTVGGQLGLAG [T22L] | 3.17
25 | FSDSSMDHFQKFLPIVGGQLGTAG [T15I] | 2.43
26 | FSDSSMDHFQKFLPTVGGQLCTAG [G21C] | 1.61
27 | FSDSSMDHIQKFLPTVGGQLGTAG [F9I] | 2.46
28 | FSDSSMDHFQKFLPTVGGQLGGAG [T22G] | 2.09
29 | MSDSSMDHFQKFLPTVGGQLGTAG [F1M] | 3.7
30 | FSDSSMDHFQKFLPTVGGQLGMAG [T22M] | 2.14
31 | FSDSSMDHFQKFLPTVGGQKGTAG [L20K] | 3.1
32 | FSDSSMDHFQKFLPFVGGQLGTAG [T15F] | 2.13
33 | FSDSTMDHFQKFLPTVGGQLGTAG [S5T] | 2.98
34 | FSDSSMDHFQDFLPTVGGQLGTAG [K11D] | 3.32
35 | FSDSSMDHFQCFLPTVGGQLGTAG [K11C] | 1.8
36 | FSDSSMDHFQKFLPTVGGQLGTAD [G24D] | 3.09
37 | FSDSSMDHNQKFLPTVGGQLGTAG [F9N] | 3.84
38 | FSFSSMDHFQKFLPTVGGQLGTAG [D3F] | 1.94
39 | FSDSSMDHFQKELPTVGGQLGTAG [F12E] | 4.6
40 | FSDSSMDHFQKFLPTVGGQEGTAG [L20E] | 3.51

Row | Variant | protein stability index
41 | FSDSSMDHFQKFLPTVGDQLGTAG [G18D] | 3.05
42 | FSDSSMDHFQKFGPTVGGQLGTAG [L13G] | 3.44
43 | FSDSSMDHFQKFLPTVGGYLGTAG [Q19Y] | 2.04
44 | FSDSSMDHFQKFLVTVGGQLGTAG [P14V] | 3.62
45 | FSDSSMDHFQKFLPTVGGPLGTAG [Q19P] | 2.51
46 | FSDCSMDHFQKFLPTVGGQLGTAG [S4C] | 1.43
47 | FSDSSMDHFQKFLLTVGGQLGTAG [P14L] | 4.1
48 | FSDSSMDHFQKFLPTQGGQLGTAG [V16Q] | 3.19
49 | FSDSSMDHFQKSLPTVGGQLGTAG [F12S] | 3.67
50 | FSDSSMDHFQKFLPTVGGQLGTAA [G24A] | 1.71
51 | FSDSSMDHFQKGLPTVGGQLGTAG [F12G] | 3.15
52 | FSDSSMDHFQKFLPTVGGQLRTAG [G21R] | 2.25
53 | FSDSSMDHFQKFLPTVGIQLGTAG [G18I] | 1.52
54 | FSDSSMDHFQKFLPTVGGQLGTQG [A23Q] | 2.62
55 | FSDSSMDHHQKFLPTVGGQLGTAG [F9H] | 2.57
56 | FSDSSMDHFQNFLPTVGGQLGTAG [K11N] | 2.56
57 | FSDSSMDHVQKFLPTVGGQLGTAG [F9V] | 3.71
58 | FSDSSMDHFFKFLPTVGGQLGTAG [Q10F] | 2.3
59 | FSDSSMDHFQKFLPTVGGGLGTAG [Q19G] | 2.05
60 | FSDSSMDHFQKFLPTWGGQLGTAG [V16W] | 2.44

Variants of: B2
Assay: as above
Conditions: c terminus: a fixed tail appended

Row | Variant | protein stability index
61 | ATDSYPVVKRREGPAGHSKGELAP [I1A] | 4.82
62 | CTDSYPVVKRREGPAGHSKGELAP [I1C] | 4.11
63 | DTDSYPVVKRREGPAGHSKGELAP [I1D] | 5.18
64 | FTDSYPVVKRREGPAGHSKGELAP [I1F] | 1.59
65 | GTDSYPVVKRREGPAGHSKGELAP [I1G] | 4.68
66 | HTDSYPVVKRREGPAGHSKGELAP [I1H] | 3.73
67 | LTDSYPVVKRREGPAGHSKGELAP [I1L] | 3.44
68 | MTDSYPVVKRREGPAGHSKGELAP [I1M] | 2.72
69 | PTDSYPVVKRREGPAGHSKGELAP [I1P] | 3.23
70 | QTDSYPVVKRREGPAGHSKGELAP [I1Q] | 4.43
71 | RTDSYPVVKRREGPAGHSKGELAP [I1R] | 4.81
72 | STDSYPVVKRREGPAGHSKGELAP [I1S] | 5.09
73 | TTDSYPVVKRREGPAGHSKGELAP [I1T] | 4.79
74 | VTDSYPVVKRREGPAGHSKGELAP [I1V] | 4.4
75 | YTDSYPVVKRREGPAGHSKGELAP [I1Y] | 2.62
76 | IADSYPVVKRREGPAGHSKGELAP [T2A] | 2.43
77 | IDDSYPVVKRREGPAGHSKGELAP [T2D] | 4.35

Row | Variant | protein stability index
78 | IFDSYPVVKRREGPAGHSKGELAP [T2F] | 4.27
79 | IGDSYPVVKRREGPAGHSKGELAP [T2G] | 3.61
80 | IHDSYPVVKRREGPAGHSKGELAP [T2H] | 4.41
81 | IIDSYPVVKRREGPAGHSKGELAP [T2I] | 4.58
82 | ILDSYPVVKRREGPAGHSKGELAP [T2L] | 4.98
83 | IMDSYPVVKRREGPAGHSKGELAP [T2M] | 3.78
84 | IPDSYPVVKRREGPAGHSKGELAP [T2P] | 3.71
85 | ISDSYPVVKRREGPAGHSKGELAP [T2S] | 3.69
86 | IVDSYPVVKRREGPAGHSKGELAP [T2V] | 3.36
87 | IWDSYPVVKRREGPAGHSKGELAP [T2W] | 3.37
88 | IYDSYPVVKRREGPAGHSKGELAP [T2Y] | 4.27
89 | ITCSYPVVKRREGPAGHSKGELAP [D3C] | 1.78
90 | ITFSYPVVKRREGPAGHSKGELAP [D3F] | 3.39
91 | ITGSYPVVKRREGPAGHSKGELAP [D3G] | 4.07
92 | ITHSYPVVKRREGPAGHSKGELAP [D3H] | 2.97
93 | ITISYPVVKRREGPAGHSKGELAP [D3I] | 1.09
94 | ITKSYPVVKRREGPAGHSKGELAP [D3K] | 3.89
